# Target: T1, hSSB1 (Homo sapiens, UniProt Q9BQ15 Q9BQ15:1-211)
# Test: SPR; LSA_In3E3 = 1
# T1 sequence (Q9BQ15 whole entry, one chain of several): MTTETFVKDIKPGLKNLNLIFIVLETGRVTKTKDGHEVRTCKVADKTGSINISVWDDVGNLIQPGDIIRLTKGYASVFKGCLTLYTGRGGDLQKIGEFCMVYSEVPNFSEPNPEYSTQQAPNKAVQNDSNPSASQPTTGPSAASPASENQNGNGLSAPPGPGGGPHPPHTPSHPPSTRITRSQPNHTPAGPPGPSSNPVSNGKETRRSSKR
row,Binder,binding signal [normalized Rmax]
1,"CCAGACAGCUGGUGUCGCCU (ssRNA, 2'-OMe all, PS all) [In3LSA_scr3_5]",0.75
2,"CCGGACUUGCCU (ssRNA, 2'-OMe all, PS all) [In3E3 5' truncation 12 nt]",0.13
3,"GUGCAUGGAAUCACGGAGUGGUGCAUGGAA (ssRNA, 2'-OMe all, PS all) [Open_A 30-mer (DKLS722361)]",4.08
4,"CCAGUGAG (ssRNA, 2'-OMe all, PS all [2'-OMe at 1-8 (all); PS at all linkages]) [In3E3 3' truncation 8 nt]",0.09
5,"CCAGUGAGCCGGA (ssRNA, 2'-OMe all, PS all) [In3E3 3' truncation 13 nt]",0.53
6,"CCAGUGAGCCGGACUUGCC (ssRNA, 2'-OMe all, PS all) [In3E3 3' truncation 19 nt]",0.68
7,"CCGGUGAGCGACACUAGGCU (ssRNA, 2'-OMe all, PS all) [In3LSA_scr3_4]",0.77
8,"CCAGUGAGCCGGACUUGC (ssRNA, 2'-OMe all, PS all) [In3E3 3' truncation 18 nt]",0.67
9,"CCAGUGAGCCGGACUUGCCU (ssRNA, PS all, no sugar modification) [In3E3 PS only (DKLS426690)]",0.99
10,"CCAGUGAGCCGGACUUG (ssRNA, 2'-OMe all, PS all) [In3E3 3' truncation 17 nt]",0.59

# Target: T2, THOC4 (ALYREF) (UniProt Q86V81 Q86V81:2-257)
# Test: SPR; LSA_In3E3 = 1
row,Binder,binding signal [normalized Rmax]
1,"CCAGACAGCUGGUGUCGCCU (ssRNA, 2'-OMe all, PS all) [In3LSA_scr3_5]",0.43
2,"CCGGACUUGCCU (ssRNA, 2'-OMe all, PS all) [In3E3 5' truncation 12 nt]",0.07
3,"GUGCAUGGAAUCACGGAGUGGUGCAUGGAA (ssRNA, 2'-OMe all, PS all) [Open_A 30-mer (DKLS722361)]",1.53
4,"CCAGUGAG (ssRNA, 2'-OMe all, PS all [2'-OMe at 1-8 (all); PS at all linkages]) [In3E3 3' truncation 8 nt]",-0.05
5,"CCAGUGAGCCGGA (ssRNA, 2'-OMe all, PS all) [In3E3 3' truncation 13 nt]",0.08
6,"CCAGUGAGCCGGACUUGCC (ssRNA, 2'-OMe all, PS all) [In3E3 3' truncation 19 nt]",0.9
7,"CCGGUGAGCGACACUAGGCU (ssRNA, 2'-OMe all, PS all) [In3LSA_scr3_4]",0.66
8,"CCAGUGAGCCGGACUUGC (ssRNA, 2'-OMe all, PS all) [In3E3 3' truncation 18 nt]",0.87
9,"CCAGUGAGCCGGACUUGCCU (ssRNA, PS all, no sugar modification) [In3E3 PS only (DKLS426690)]",1.06
10,"CCAGUGAGCCGGACUUG (ssRNA, 2'-OMe all, PS all) [In3E3 3' truncation 17 nt]",0.69

# Target: T1, hSSB1
# Test: SPR
row,Binder,binding signal [normalized Rmax]
1,"GCCACCCGUCGGUUGCUAGA (ssRNA, 2'-OMe all, full PS) [DKLS659460 (SEQ 52)]",1.65
2,"UCUCCCAGCGUGCGCCAU (ssRNA, 2'-OMe all, full PS) [DKLS696616 (SEQ 9)]",0.79
3,"CCUGUGUGCCCCUCUUCCCU (ssRNA, 2'-OMe all, full PS) [DKLS374580 (SEQ 58)]",0.68
4,"GGGCCUCCCGCACUUGAGAU (ssRNA, 2'-OMe all, full PS) [DKLS679059 (SEQ 55)]",0.85
5,"CCAGGGAGCCGGACUUGGCG (ssRNA, 2'-OMe all, full PS) [DKLS712428 (SEQ 64)]",0.7
6,"CCAGUGAGCCG (ssRNA, 2'-OMe all, full PS) [In3E3 3' truncation 11 nt]",0.15
7,"CCAGUGAGCCGAACUUCUCU (ssRNA, 2'-OMe all, full PS) [DKLS459014 (SEQ 62)]",0.55
8,"CCUGUCAGCCGCACUUGCCU (ssRNA, 2'-OMe all, full PS) [DKLS463357 (SEQ 59)]",0.95
9,"UUGACAGAUUAAGUCCAUUC (ssRNA, 2'-OMe all, full PS) [DKLS675388 (SEQ 51)]",0.89
10,"GGCACGUCCGCCAGUCAUGU (ssRNA, 2'-OMe all, full PS) [DKLS656105 (SEQ 56)]",0.73
11,"GCCCGUCUGGCGCAUAGCUA (ssRNA, 2'-OMe all, full PS) [DKLS646683 (SEQ 54)]",0.98
12,"CCACUGAGCCCGACUUCCCU (ssRNA, 2'-OMe all, full PS) [DKLS459520 (SEQ 60)]",0.63
13,"UACCGCGUGCGACCCUCU (ssRNA, 2'-OMe all, full PS) [DKLS784557 (SEQ 10)]",0.69
14,"CUAGUAAGUCGGACUUGCCU (ssRNA, 2'-OMe all, full PS) [DKLS447399 (SEQ 63)]",1.22
15,"CCUCUCUGCCGCUCUUGCCU (ssRNA, 2'-OMe all, full PS) [DKLS420640 (SEQ 57)]",0.48
16,"CCAGUAAGCCAGACUUGCAU (ssRNA, 2'-OMe all, full PS) [DKLS399970 (SEQ 61)]",0.64
17,"GCGGGUCCUCUACGCACUGA (ssRNA, 2'-OMe all, full PS) [DKLS649547 (SEQ 53)]",1.55
18,"GCGGUGAACCGGAGUUGGCU (ssRNA, 2'-OMe all, full PS) [DKLS438994 (SEQ 66)]",1.03
19,"GGAGGGAGUCGGACUUGUCU (ssRNA, 2'-OMe all, full PS) [DKLS444294 (SEQ 65)]",1.58

# Target: T2, THOC4 (ALYREF)
# Test: SPR
row,Binder,binding signal [normalized Rmax]
1,"GCCACCCGUCGGUUGCUAGA (ssRNA, 2'-OMe all, full PS) [DKLS659460 (SEQ 52)]",0.89
2,"UCUCCCAGCGUGCGCCAU (ssRNA, 2'-OMe all, full PS) [DKLS696616 (SEQ 9)]",1.12
3,"CCUGUGUGCCCCUCUUCCCU (ssRNA, 2'-OMe all, full PS) [DKLS374580 (SEQ 58)]",0.12
4,"GGGCCUCCCGCACUUGAGAU (ssRNA, 2'-OMe all, full PS) [DKLS679059 (SEQ 55)]",0.37
5,"CCAGGGAGCCGGACUUGGCG (ssRNA, 2'-OMe all, full PS) [DKLS712428 (SEQ 64)]",0.51
6,"CCAGUGAGCCG (ssRNA, 2'-OMe all, full PS) [In3E3 3' truncation 11 nt]",-0.03
7,"CCAGUGAGCCGAACUUCUCU (ssRNA, 2'-OMe all, full PS) [DKLS459014 (SEQ 62)]",0.26
8,"CCUGUCAGCCGCACUUGCCU (ssRNA, 2'-OMe all, full PS) [DKLS463357 (SEQ 59)]",0.39
9,"UUGACAGAUUAAGUCCAUUC (ssRNA, 2'-OMe all, full PS) [DKLS675388 (SEQ 51)]",0.15
10,"GGCACGUCCGCCAGUCAUGU (ssRNA, 2'-OMe all, full PS) [DKLS656105 (SEQ 56)]",0.23
11,"GCCCGUCUGGCGCAUAGCUA (ssRNA, 2'-OMe all, full PS) [DKLS646683 (SEQ 54)]",0.85
12,"CCACUGAGCCCGACUUCCCU (ssRNA, 2'-OMe all, full PS) [DKLS459520 (SEQ 60)]",0.03
13,"UACCGCGUGCGACCCUCU (ssRNA, 2'-OMe all, full PS) [DKLS784557 (SEQ 10)]",0.49
14,"CUAGUAAGUCGGACUUGCCU (ssRNA, 2'-OMe all, full PS) [DKLS447399 (SEQ 63)]",1.22
15,"CCUCUCUGCCGCUCUUGCCU (ssRNA, 2'-OMe all, full PS) [DKLS420640 (SEQ 57)]",0.03
16,"CCAGUAAGCCAGACUUGCAU (ssRNA, 2'-OMe all, full PS) [DKLS399970 (SEQ 61)]",0.3
17,"GCGGGUCCUCUACGCACUGA (ssRNA, 2'-OMe all, full PS) [DKLS649547 (SEQ 53)]",0.85
18,"GCGGUGAACCGGAGUUGGCU (ssRNA, 2'-OMe all, full PS) [DKLS438994 (SEQ 66)]",1.11
19,"GGAGGGAGUCGGACUUGUCU (ssRNA, 2'-OMe all, full PS) [DKLS444294 (SEQ 65)]",1.78

# Source: US20200230168, “NUCLEIC ACID OLIGOMERS AND USES THEREFOR” (Queensland University of Technology, published 2020)
